± gives the standard deviation of the averaged measurements.
The sequences below were run on ATP (assay: switch fluorescence ratio, 500 uM ATP over buffer (Cy3 cluster intensity, sum of 5 cycles each) (fold (ratio)); higher = stronger signal-on switching upon ATP binding; sequences stand for … in TCGTCGGCAGCGTCAGATGTGTATAAGAGACAGTTTTTTTTTTTTTTTTTTTTTTTTT…TC). Settings: aptamer strand: ATP DNA aptamer (quencher-CACCTGGGGGAGTATTGCGGAGGAAGG + anchor), 100 nM annealed; ATP concentration: 500 uM.
Procedure, shortened: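 Cy3-labelled switching-strand clusters on a modified Illumina MiSeq flow-cell were annealed to 100 nM quencher-labelled ATP aptamer and imaged first in selection buffer, then after 15 min with 500 uM ATP at 22 °C. NaOH stripping and re-annealing separated each of five buffer/ATP cycles, and clusters outside 100-1000 RFU were excluded. The fluorescence ratio sums target-cycle Cy3 intensity over buffer-cycle Cy3 intensity per cluster and averages it per switch-domain sequence.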
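Further: ATP exposure 15 min at 22 °C before imaging.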

| Sequence | switch fluorescence ratio |
| --- | --- |
| ATCTAGTAGT | 1.01 ± 0.013 |
| GCTGATCGTA | 0.9915 ± 0.0057 |
| TGGGGGGGTG | 1.01 ± 0.033 |
| TCTACTGGGT | 0.993 ± 0.033 |
| CGTGCTGTA | 1.046 ± 0.0054 |
| TTCGTGTTCT | 1 ± 0.03 |
| ATTGGGGGCC | 0.967 ± 0.028 |
| GGGGCTCTAA | 1.01 ± 0.038 |
| CAGGATTGGC | 1.07 ± 0.019 |
| TGGGCCGCCC | 1.07 ± 0.12 |
| TCATACTTAA | 1.04 ± 0.1 |
| GATGGGATGC | 1.07 ± 0.071 |
| GGGTTGTTGT | 0.982 ± 0.014 |
| TGGGGGTCTG | 1.01 ± 0.045 |
| ATGAAAGGAT | 1.014 ± 0.0042 |
| CGGGCAGATG | 0.983 ± 0.028 |
| ATATGTGAGG | 0.985 ± 0.0073 |
| AGGGAGGTTG | 1.01 ± 0.013 |
| TTGCAGGGGA | 1.3 ± 0.38 |
| AAATTGCGAG | 1.005 ± 0.0033 |
| AAGTATAGGT | 1.03 ± 0.017 |
| CGCTAGGGGG | 1.06 ± 0.026 |
| CTACTTTAGA | 0.993 ± 0.036 |
| TTTTATGGGG | 0.968 ± 0.031 |
| TGCTTATGGG | 0.965 ± 0.016 |

| Sequence | switch fluorescence ratio |
| --- | --- |
| GGATGAGGTT | 0.982 ± 0.044 |
| CGGTTATGTA | 0.989 ± 0.034 |
| TGAGCCCTTT | 1.018 ± 0.0046 |
| ATATGAATA | 0.9987 ± 0.0037 |
| TTGCACGCCT | 1.01 ± 0.024 |
| CCGCGAGCTA | 4.52 ± 1.1 |
| ACTTGTAGAT | 1.009 ± 0.0059 |
| TACGAATAGG | 1.017 ± 0.0043 |
| GGTTGACTTA | 1.03 ± 0.011 |
| TAAGGCTGTT | 0.953 ± 0.023 |
| ATTGTTTGGG | 1.03 ± 0.019 |
| CTTGCATAAC | 3.51 ± 0.88 |
| TCGGGAGTTG | 0.952 ± 0.024 |
| GGCGCGCGGT | 0.98 ± 0.0095 |
| ACCGTTGGTT | 1.02 ± 0.056 |
| CAGGTTTTTT | 0.989 ± 0.019 |
| ATAATGTGAA | 1.03 ± 0.017 |
| CTAGAAGGCG | 1.02 ± 0.052 |
| AGGTCAGCTT | 1.01 ± 0.04 |
| TATGCTAGC | 1.03 ± 0.091 |
| ATAGTATGTT | 0.99 ± 0.051 |
| TAACGAAGGA | 1.03 ± 0.051 |
| ACGGGGCTAA | 1.12 ± 0.15 |
| TTAGGTGGAA | 0.976 ± 0.012 |
| AAGGCAGGCG | 0.977 ± 0.096 |

| Sequence | switch fluorescence ratio |
| --- | --- |
| TCGTTTTCCC | 1.08 ± 0.14 |
| ATTGTATTTG | 1.01 ± 0.034 |
| TTAGACGAGC | 0.986 ± 0.031 |
| AAGTAATGCG | 1.04 ± 0.034 |
| CGCCGAGTTT | 1.05 ± 0.071 |
| GAAGAGGGTG | 1.03 ± 0.022 |
| TAGTGATGTT | 0.983 ± 0.018 |
| AAGGTTGAAC | 0.979 ± 0.011 |
| GATCGTTGGT | 0.991 ± 0.021 |
| TTCAAGGTA | 1.01 ± 0.015 |
| ATTTAAGGGG | 0.9949 ± 0.0092 |
| GGATGTTTTT | 1.03 ± 0.026 |
| TTGTCTTTTT | 0.998 ± 0.015 |
| TCCTTGTAGT | 1.11 ± 0.17 |
| GGTTTATTGG | 1 ± 0.03 |
| CTTTCCCCGT | 1.396 ± 0.0017 |
| GTATTCAGTA | 0.995 ± 0.022 |
| AAGGAAGTGG | 0.99 ± 0.022 |
| GTTTTTAGAA | 0.994 ± 0.031 |
| CGAGGTAGTT | 0.975 ± 0.026 |
| GCGTTTAAGT | 1.02 ± 0.032 |
| ACCTGTGATC | 1.02 ± 0.026 |
| AAGCTCCTCT | 1.03 ± 0.032 |
| AAGGGAGGTT | 1 ± 0.027 |
| GACAGCGGCG | 1.01 ± 0.032 |

| Sequence | switch fluorescence ratio |
| --- | --- |
| ACTGTGCGAC | 1.58 ± 0.025 |
| ATAGCCCGGG | 0.986 ± 0.011 |
| TGGGCGGTGT | 0.992 ± 0.037 |
| GAATGAGATT | 1.001 ± 0.0043 |
| TTCGATGTGG | 1.01 ± 0.018 |
| AGGGAAGTCG | 0.9751 ± 0.0093 |
| TCAAACGAC | 1.08 ± 0.011 |
| GTTTAAAATG | 1 ± 0.024 |
| TAAAGGGATC | 0.978 ± 0.017 |
| CGCGATATTG | 1.58 ± 0.018 |
| GGGGGGCAAT | 1.2 ± 0.099 |
| ACACTGTATC | 1.21 ± 0.038 |
| CGCTTTGGGT | 0.99 ± 0.018 |
| GGTCAATGTG | 0.987 ± 0.033 |
| GTCGGGAGGC | 1.02 ± 0.022 |
| ATCAAAAGAT | 0.9811 ± 0.0085 |
| TGTCAGTGCT | 1.015 ± 0.0066 |
| TAAGATTTTT | 1.01 ± 0.032 |
| TTAATTGTTC | 1.06 ± 0.068 |
| CCATTGTAAT | 1.1 ± 0.024 |
| GCTATAGGTG | 1.27 ± 0.057 |
| ATGGGGGCCG | 1.01 ± 0.039 |
| TAGTTCGTTT | 0.998 ± 0.016 |
| CGGATCTTGT | 0.961 ± 0.021 |
| GCCCGGGCGC | 1 ± 0.014 |

| Sequence | switch fluorescence ratio |
| --- | --- |
| CGTGCCCTGC | 1.06 ± 0.028 |
| TCAAAGGTAC | 1.04 ± 0.0092 |
| ATTGGACTGG | 0.998 ± 0.057 |
| ACCAACTCAA | 1.18 ± 0.037 |
| AACGGTAGTG | 1.09 ± 0.03 |
| ATTAGGAATG | 1.01 ± 0.027 |
| GGGGTCCCAG | 0.971 ± 0.03 |
| CATTCAGTTT | 0.949 ± 0.021 |
| GATTGTAGCT | 0.987 ± 0.023 |
| TGATATAGAG | 1 ± 0.029 |
| CTGGCATTAT | 1.21 ± 0.038 |
| GACTGGGGGG | 0.997 ± 0.041 |
| CGGATTTGGA | 0.976 ± 0.051 |
| GGTTTCGCCA | 0.9807 ± 0.0096 |
| CTGGTTAATT | 0.973 ± 0.017 |
| TTGAACTGTG | 1.02 ± 0.22 |
| ATCGGGTGGG | 1.001 ± 0.0075 |
| TGTGTAAAGT | 1.82 ± 1.2 |
| CCAAGCATAG | 3.63 ± 0.47 |
| GGTATGGGAC | 1 ± 0.022 |
| TTCTGATTAT | 1 ± 0.035 |
| TATGGAGGGA | 0.996 ± 0.021 |
| AGGTATTGGG | 1.02 ± 0.043 |
| CAAATCCTAT | 1.01 ± 0.013 |
| TGTCACTGTG | 0.979 ± 0.049 |

| Sequence | switch fluorescence ratio |
| --- | --- |
| ATGGTAGGGT | 1.01 ± 0.018 |
| TGGGGGCATA | 1.09 ± 0.1 |
| TGGTTTTTGT | 1.1 ± 0.2 |
| TTTAGAAGGG | 0.979 ± 0.051 |
| GAACGGGGCG | 1.01 ± 0.099 |
| TCCTTTTGG | 0.996 ± 0.044 |
| TTTAGAAAAC | 0.984 ± 0.037 |
| CGTGTTAATT | 0.982 ± 0.034 |
| CTGGGGATTG | 1.01 ± 0.014 |
| TTTGGGCTGT | 1.02 ± 0.021 |
| AACGGAGTGG | 1 ± 0.042 |
| CGTATAACTC | 1.11 ± 0.014 |
| ATTGGGGGAC | 0.98 ± 0.03 |
| CATGAGATAC | 1.16 ± 0.022 |
| TTTAGTGTCT | 0.983 ± 0.021 |
| CACGAAGGGT | 1.02 ± 0.018 |
| GAAGCCGGAA | 1.04 ± 0.021 |
| TGTTTGGCTT | 0.9619 ± 0.0079 |
| TTTAGAGAGC | 0.987 ± 0.051 |
| TAGGTCTTGC | 1.01 ± 0.033 |
| TAAAATTTTT | 1.002 ± 0.01 |
| GGGGGGAAAG | 0.98 ± 0.029 |
| GCAAGTCATG | 1.03 ± 0.04 |
| GGTAGTCCAC | 1.01 ± 0.027 |
| TTAGGGTTTG | 0.995 ± 0.029 |

| Sequence | switch fluorescence ratio |
| --- | --- |
| TATCCATGGA | 1.01 ± 0.026 |
| CGGAATGTTT | 1.05 ± 0.057 |
| TGGGAAGGCA | 1 ± 0.025 |
| TATCCTGTTT | 1.04 ± 0.011 |
| GCGTTAGTAC | 1.09 ± 0.031 |
| AGGATTTGGT | 0.984 ± 0.031 |
| GTTTTTCTTA | 0.978 ± 0.037 |
| CTTACATTGC | 1.05 ± 0.029 |
| GGGGAATTTT | 1.01 ± 0.037 |
| GTTCTATGC | 1 ± 0.079 |
| ATGGAACTTG | 0.9943 ± 0.0059 |
| ACAACGCTTG | 1.01 ± 0.032 |
| TTACGTCATA | 1.67 ± 0.95 |
| GGGCGGGGGT | 1.02 ± 0.019 |
| CGGGGGGAAA | 1 ± 0.02 |
| GCTACCAAGC | 1.07 ± 0.025 |
| AAATCTGTAG | 0.9849 ± 0.002 |
| TGCTGCTGAG | 0.971 ± 0.016 |
| TGATTAGAGT | 1.01 ± 0.016 |
| AGAATCGTAT | 1.01 ± 0.028 |
| TTAATGGTTG | 0.975 ± 0.032 |
| CGTTCTAGTG | 0.974 ± 0.011 |
| TATGGATTGT | 1.01 ± 0.04 |
| ATGGGAAACT | 1.012 ± 0.0074 |
| AGGGGTGAGT | 1.02 ± 0.04 |

| Sequence | switch fluorescence ratio |
| --- | --- |
| CCTTGAATGG | 1.05 ± 0.005 |
| CGGAGTAACG | 1.04 ± 0.03 |
| TCGACGGGGG | 1.06 ± 0.081 |
| GGTGGGGGCT | 0.973 ± 0.034 |
| TTACGGGTAA | 0.99 ± 0.01 |
| ATGCTTCTGT | 0.964 ± 0.013 |
| TTTATACCGC | 1.13 ± 0.071 |
| AGGGTTTCTC | 0.989 ± 0.0011 |
| AACACCTCTC | 1.1 ± 0.07 |
| TACACTGAAA | 1.08 ± 0.026 |
| GAGGGAGATT | 1.02 ± 0.05 |
| TCATTGATTG | 0.999 ± 0.022 |
| TTCTGGTATA | 1.02 ± 0.024 |
| AGGTAAGGCT | 0.976 ± 0.025 |
| AGATGTGTGG | 0.989 ± 0.053 |
| TATATAAAGA | 1.03 ± 0.035 |
| TAACGGCATT | 1.08 ± 0.037 |
| GCTAGGCATG | 1.04 ± 0.027 |
| GGGGCCGGGA | 1.12 ± 0.19 |
| GTTGTACTGG | 0.944 ± 0.03 |
| GAGGGGGATT | 0.991 ± 0.028 |
| CCGTGCCGTT | 0.948 ± 0.024 |
| AACGGGTGCA | 0.9896 ± 0.0011 |
| CCCAGGAGGC | 1.08 ± 0.03 |
| AATTGATGTT | 0.972 ± 0.025 |

Source: the supplement of paper PMC10126150
